Experimental data: patent publication US20080234198A1 (Eli Lilly, published 2008)
Where a chain is given by its changes, count along the chain named. *1 amine or outer side, *2 acyl side, *3 side chain or, on linkers, in order; H or OH if unused. [ ]: non-standard residue; d: D form. The star is where a group is joined. Tyr(OMe) = methoxy tyrosine, COc1ccc(C[C@H](N[*:1])C(=O)[*:2])cc1; WPEG40K = not defined here; Orn = NCCC[C@H](N)C(=O)O; Abu = CC[C@H](N)C(=O)O; Hexanoyl = CCCCCC(=O)*; Aib = CC(C)(N)C(=O)O

T1: rat VPAC1 receptor (rat, UniProt P30083 31-459)
T1 sequence (looked up): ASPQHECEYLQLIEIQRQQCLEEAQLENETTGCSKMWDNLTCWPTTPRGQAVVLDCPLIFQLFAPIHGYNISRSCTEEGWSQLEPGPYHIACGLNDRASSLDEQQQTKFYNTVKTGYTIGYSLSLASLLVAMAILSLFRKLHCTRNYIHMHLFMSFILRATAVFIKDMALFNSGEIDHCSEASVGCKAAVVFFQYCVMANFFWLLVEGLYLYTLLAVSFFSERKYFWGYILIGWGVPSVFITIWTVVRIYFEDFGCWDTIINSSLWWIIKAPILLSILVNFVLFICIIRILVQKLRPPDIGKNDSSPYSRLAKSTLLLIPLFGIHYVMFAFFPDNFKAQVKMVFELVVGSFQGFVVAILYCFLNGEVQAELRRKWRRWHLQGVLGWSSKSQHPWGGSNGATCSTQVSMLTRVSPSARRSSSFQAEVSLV

T2: rat VPAC2 receptor (rat, UniProt P35000 23-437)
T2 sequence (looked up): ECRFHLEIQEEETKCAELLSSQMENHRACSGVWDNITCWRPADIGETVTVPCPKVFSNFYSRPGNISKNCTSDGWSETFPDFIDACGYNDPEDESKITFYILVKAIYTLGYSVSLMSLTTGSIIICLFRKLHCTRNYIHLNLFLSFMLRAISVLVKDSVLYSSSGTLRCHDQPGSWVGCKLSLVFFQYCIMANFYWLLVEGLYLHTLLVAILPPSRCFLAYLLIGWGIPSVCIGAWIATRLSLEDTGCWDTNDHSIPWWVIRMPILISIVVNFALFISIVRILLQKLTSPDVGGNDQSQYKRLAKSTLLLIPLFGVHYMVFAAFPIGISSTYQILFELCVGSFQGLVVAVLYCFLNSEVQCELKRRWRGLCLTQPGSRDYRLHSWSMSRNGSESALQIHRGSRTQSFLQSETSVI

T3: human VPAC2 receptor (human, UniProt P41587 24-438)
T3 construct: whole, on cells; CHO-S cell line stably expressing human VPAC2 (cAMP assays)
T3 sequence (looked up): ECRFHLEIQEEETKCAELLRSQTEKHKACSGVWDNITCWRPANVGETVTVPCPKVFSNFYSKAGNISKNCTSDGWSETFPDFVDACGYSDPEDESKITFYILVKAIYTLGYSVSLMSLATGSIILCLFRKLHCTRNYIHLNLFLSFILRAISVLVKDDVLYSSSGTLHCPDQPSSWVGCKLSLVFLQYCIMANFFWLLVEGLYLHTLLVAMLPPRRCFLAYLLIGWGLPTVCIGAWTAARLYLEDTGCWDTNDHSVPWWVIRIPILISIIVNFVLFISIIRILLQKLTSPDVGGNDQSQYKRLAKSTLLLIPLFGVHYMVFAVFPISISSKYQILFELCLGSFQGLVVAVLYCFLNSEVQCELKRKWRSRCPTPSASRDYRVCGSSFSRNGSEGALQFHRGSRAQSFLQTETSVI

B1: P517 (peptide)
peptide: HSDAVFTEQYTXLRXQLAXXXYLQXIXXGGPSSGAPPPCC
modifications: C6-HSDAVFTEQY(OMe)TOrnLRAibQLAAbuAibOrnYLQAibIOrnOrnGGPSSGAPPPC(PEG20K)C(PEG20K)-NH2
B2: P521 (peptide)
peptide: B1 peptide with L23X, X25S
modifications: C6-HSDAVFTEQY(OMe)TOrnLRAibQLAAbuAibOrnYAibQSIOrnOrnGGPSSGAPPPC(PEG20K)C(PEG20K)-NH2
B3: P523 (peptide)
peptide: B1 peptide with X25S
modifications: C6-HSDAVFTEQY(OMe)TOrnLRAibQLAAbuAibOrnYLQSIOrnOrnGGPSSGAPPPC(PEG20K)C(PEG20K)-NH2
B4: P525 (peptide)
peptide: B1 peptide with L23X
modifications: C6-HSDAVFTEQY(OMe)TOrnLRAibQLAAbuAibOrnYAibQAibIOrnOrnGGPSSGAPPPC(PEG20K)C(PEG20K)-NH2
B5: P505 (peptide)
peptide: HSDAVFTEQYTXLRXQVAAXXYLQSIXCXGGPSSGAPPPC
modifications: C6-HSDAVFTEQY(OMe)TOrnLRAibQVAAAibOrnYLQSIOrnC(PEG20K)OrnGGPSSGAPPPC(PEG20K)-NH2
B6: P551 (peptide)
peptide: B5 peptide with V17L, A19X, C28X
modifications: C6-HSDAVFTEQY(OMe)TOrnLRAibQLAAbuAibOrnYLQSIOrnK(CO(CH2)2SPEG20K)OrnGGPSSGAPPPC(PEG20K)-NH2
B7: P555 (peptide)
peptide: B5 peptide with V17L, A19X
modifications: C6-HSDAVFTEQY(OMe)TOrnLRAibQLAAbuAibOrnYLQSIOrnC(PEG20K)OrnGGPSSGAPPPC(PEG20K)-NH2
B8: P562 (peptide)
peptide: B5 peptide with C28X, X29C
modifications: C6-HSDAVFTEQY(OMe)TOrnLRAibQVAAAibOrnYLQSIOrnOrnC(PEG20K)GGPSSGAPPPC(PEG20K)-NH2
B9: P553 (peptide)
peptide: B5 peptide with V17L, A19X, S25X
modifications: C6-HSDAVFTEQY(OMe)TOrnLRAibQLAAbuAibOrnYLQAibIOrnC(PEG20K)OrnGGPSSGAPPPC(PEG20K)-NH2
B10: P529 (peptide)
peptide: HSDAVFTEQYTXLRXQVAAXXYLQSIXXGGPSSGAPPPS
modifications: not fully specified; C6-HSDAVFTEQY(OMe)TOrnLRK(WPEG40K)QVAAAibOrnYLQSIOrnOrnGGPSSGAPPPS-NH2
B11: P490 (peptide)
peptide: B10 peptide with Q24X, S39C
modifications: C6-HSDAVFTEQY(OMe)TOrnLRAibQVAAAibOrnYLK(CO(CH2)2SPEG20K)SIOrnOrnGGPSSGAPPPC(PEG20K)-NH2

Experiments:
rat VPAC1 receptor = molecular target: T1, rat VPAC1 receptor; assay: cell-based or functional assay
rat VPAC2 receptor = molecular target: T2, rat VPAC2 receptor; assay: cell-based or functional assay
human VPAC2 receptor [1] = molecular target: T3, human VPAC2 receptor; assay: filter binding, VPAC2 cell membranes, displacement of 125I-VIP
Experimental: Binding assays: Membrane prepared from a stable VPAC2 cell line (see Example 3) or from cells transiently transfected with human VPAC1 or PAC1 are used.
The assay plate is filled with 25 μL assay buffer, 25 μL membranes (2.5 μg) suspended in assay buffer, 25 μL agonist in assay buffer, and 25 μL tracer (about 40000 cpm) in assay buffer. The filled plate is incubated for 1 hour with shaking.
The transfer from assay plate to filter plate is conducted. The blocking buffer is aspirated by vacuum filtration and washed two times with flush buffer. 90 μL is transferred from the assay plate to the filter plate. The 90 μL transferred from assay plate is aspirated and washed three times with 200 μL flush buffer. The plastic support is removed. It is dried for 1 hour at 60° C. 30 μL Microscint is added. The count is performed.

human VPAC2 receptor [2] = molecular target: T3, human VPAC2 receptor; assay: cell-based or functional assay

Binder | Rat VPAC1 Receptor: DiscoveRx: (EC50; nM) (rat VPAC1 receptor) [nM] | Rat VPAC2 Receptor: DiscoveRx: (EC50; nM) (rat VPAC2 receptor) [nM] | IC50 (human VPAC2 receptor [1]) [nM] | Human VPAC2 Receptor: Alphascreen (EC50; nM) (human VPAC2 receptor [2]) [nM] | Human VPAC2 Receptor: DiscoveRx (EC50; nM) (human VPAC2 receptor [2]) [nM]
C6-HSDAVFTEQ[Tyr(OMe)]T[Orn]LRC(PEG 40 kDa)QLA[Abu][Aib][Orn]YLQ[Aib]I[Orn][Orn]GGPSSGAPPPS-NH2 [P547] | 76.2 | 150 | 5.6 | 62 | –
B1 | 92.4 | 10 | 3.7 | 7.5 | –
B2 | 602 | 33.1 | 67.1 | 22.1 | –
B3 | 20.4 | 5.3 | 4.8 | 5.8 | –
B4 | 1140 | 44 | 41.8 | 25 | –
B5 | 639 | 42.6 | 26.1 | 40.5 | –
HSDAVFTEQYTXLRXQLAXXXYLQSIXCXGGPSSGAPPPS (C6-HSDAVFTEQY(OMe)TOrnLRAibQLAAbuAibOrnYLQSIOrnC(PEG40K)OrnGGPSSGAPPPS-NH2) [P539] | 32.6 | 21 | 13.5 | 10.7 | 47.3
HSDAVFTEQYTXLRXQLAAXXYLQSIXXCGGPSSGAPPPS (C6-HSDAVFTEQY(OMe)TOrnLRAibQLAAAibOrnYLQSIOrnOrnC(PEG40K)GGPSSGAPPPS-NH2) [P560] | 156 | 20.4 | 11.6 | 13.8 | 11.3
HSDAVFTEQYTXLRXQLAXXXYLQXIXCXGGPSSGAPPPS (C6-HSDAVFTEQY(OMe)TOrnLRAibQLAAbuAibOrnYLQAibIOrnC(PEG40K)OrnGGPSSGAPPPS-NH2) [P537] | 206 | 38.8 | 17.2 | 32 | –
B6 | 172 | 13.2 | 16.6 | 15.6 | –
B7 | 68.9 | 32.5 | 15.4 | 22.5 | 8.1
B8 | 393 | 52.5 | 42.8 | 30.2 | 24.2
B9 | 262 | 22 | 21.7 | 15 | –
Hexanoyl-HSDAVFTEQ[Tyr(OMe)]T[Orn]LRK(WPEG40K)QLA[Abu][Aib][Orn]YLQ[Aib]I[Orn][Orn]GGPSSGAPPPS-NH2 (reading uncertain) [P557] | 581 | 397 | 380 | – | 108
HSDAVFTEQYTXLRXQVAAXXYLQXIXXGGPSSGAPPPC (C6-HSDAVFTEQY(OMe)TOrnLRAibQVAAAibOrnYLQAibIOrnOrnGGPSSGAPPPC(PEG40K)-NH2) [P509] | 328 | 28.2 | 11.2 | 13 | –
HSDAVFTEQYTXLRCQVAAXXYLQSIXXGGPSSGAPPPS (C6-HSDAVFTEQY(OMe)TOrnLRC(PEG40K)QVAAAibOrnYLQSIOrnOrnGGPSSGAPPPS-NH2) [P483] | 224 | 128 | 37.3 | 33.5 | –
B10 | 1180 | 199 | 192 | 170 | –
HSDAVFTEQYTXLRXQVAAXXYLQSIXXGGPSSGAPPPS (C6-HSDAVFTEQY(OMe)TOrnLRAibQVAAK(CO(CH2)2SPEG40K)OrnYLQSIOrnOrnGGPSSGAPPPS-NH2) [P475] | > 1000 | 220 | 436 | 109 | –
B11 | > 1000 | 192 | 13.2 | 116 | –
HSDAVFTEQYTXLRXQVAAXXYLQSIXXGGPSSGAPPPS (C6-HSDAVFTEQY(OMe)TOrnLRAibQVAAAibK(CO(CH2)2SPEG20K)YLQSIOrnOrnGGPSSGAPPPS-NH2) [P473] | > 1000 | 25.5 | 256 | 26.5 | –
HSDAVFTEQYTXLRXQCAXXXYLQXIXXGGPSSGAPPPS (C6-HSDAVFTEQY(OMe)TOrnLRAibQC(PEG40K)AAbuAibOrnYLQAibIOrnOrnGGPSSGAPPPS-NH2) [P545] | 380 | 99.5 | 79.9 | 45 | –
HSDAVFTEQYTXLRXQVAXXXYLQXIXXGGPSSGAPPPC (C6-HSDAVFTEQY(OMe)TOrnLRAibQVAAbuAibOrnYLQAibIOrnOrnGGPSSGAPPPC(PEG40K)-NH2) [P511] | 61.9 | 13.9 | 7.2 | 7.6 | –
HSDAVFTEQYTXLRXQVAAXXYLXSIXXGGPSSGAPPPS (C6-HSDAVFTEQY(OMe)TOrnLRAibQVAAAibOrnYLK(WPEG40K)SIOrnOrnGGPSSGAPPPS-NH2) [P531] | 301 | 69.9 | 69.7 | 94.6 | –
HSDAVFTEQYTXLRXQLAXXXYLQXCXXGGPSSGAPPPS (C6-HSDAVFTEQY(OMe)TOrnLRAibQLAAbuAibOrnYLQAibC(PEG40K)OrnOrnGGPSSGAPPPS-NH2) [P541] | 665 | 102 | 59.8 | 45.8 | –
